Paper PMC8996150, “The structure of Synechococcus elongatus enolase reveals key aspects of phosphoenolpyruvate binding” (Acta Crystallographica. Section F, Structural Biology …, 2022)

Substrate: O=C(O)[C@@H](CO)OP(=O)(O)O
Test: purified protein
Format: biochemical, Synechococcus elongatus
Details: 100 mM HEPES pH 8.0, 100 mM KCl, 1.0 mM MgCl2, 30°C, dehydration direction

B1: SeEN (Synechococcus elongatus enolase) (Synechococcus elongatus PCC 7942 = FACHB-805) (protein)
chain: MPDDYGTQIAEITAREILDSRGRPTVEAEVHLEDGSVGLAQVPSGASTGTFEAHELRDDDPSRYGGKGVQKAVENVSAIEDALIGLSALDQEGLDKAMIALDGTPNKKNLGANAILAVSLATAHAAATSLNLPLYRYLGGPLANVLPVPMMNVINGGAHADNNVDFQEFMIMPVGAPSFKEALRWGAEVFHALAKVLKDKGLATGVGDEGGFAPNLGSNKEALELLLTAIEAAGYKPGEQVALAMDVASSEFYKNGLYTCDGVSHEPAGMIGILADLVSQYPIVSIEDGLQEDDWSNWKTLTQQLGSTVQLVGDDLFVTNPDRLQSGIEQGVGNAVLIKLNQIGTLTETLRTIDLATRSGYRSVISHRSGETEDTTIADLAVATRAGQIKTGSLSRSERIAKYNRLLRIEAALGENALYAGAIGLGPKGR
notes: full length, synthetic codon-optimized gene in pET-42a(+), C-terminal … (8xHis) tag kept, E. coli Arctic Express (DE3); mainly monomer in gel filtration, dimer in PEP crystal, octamer predicted
Q: How did the Km turn out when B1 was run?
A: Its Km is 61 ± 4 µM.

Q: And the kcat?
A: Its kcat is 7.4 ± 0.1 s⁻¹.

Q: What about the kcat/Km of the same protein?
A: Its kcat/Km is 120000 M⁻¹ s⁻¹.
